B1: Pistol ribozyme (parent)
chain: GGGUCGUUGUUCCAUAAUCGCGUGGAUAUGGCACGCAAGUUUCUACCGGGCACCGUAAAUGUCCGACUGGAGCCGUUCGGGCGGCUAUAAACAGACCUCAGGCCCGAAGCGUGGCGGCACCUGCCGCCGGUGGUAAAAAAGAUCGGAAGAGCACACGUCU

Variants of: B1
Experiment: aptazyme ON/OFF ratio, guanine; higher = stronger switching; co-transcriptional cleavage with and without guanine

Variant	aptazyme ON/OFF ratio
GGGUCGUGCGGGAAUAAUCGCGUGGAUAUGGCACGCAAGUUUCUACCGGGCACCGUAAAUGUCCGACUGGAGCCGUUCGGGCGGCUAUAAACAGACCUCAGGCCCGAAGCGUGGCGGCACCUGCCGCCGGUGGUAAAAAAGAUCGGAAGAGCACACGUCU	1.24
GGGUCGGAGCACCAUAAUCGCGUGGAUAUGGCACGCAAGUUUCUACCGGGCACCGUAAAUGUCCGACUGGAGCCGUUCGGGCGGCUAUAAACAGACCUCAGGCCCGAAGCGUGGCGGCACCUGCCGCCGGUGGUAAAAAAGAUCGGAAGAGCACACGUCU	2.3
GGGUCGUACGGUAAUAAUCGCGUGGAUAUGGCACGCAAGUUUCUACCGGGCACCGUAAAUGUCCGACUGGAGCCGUUCGGGCGGCUAUAAACAGACCUCAGGCCCGAAGCGUGGCGGCACCUGCCGCCGGUGGUAAAAAAGAUCGGAAGAGCACACGUCU	1.08
GGGUCGAGUAUUUAUAAUCGCGUGGAUAUGGCACGCAAGUUUCUACCGGGCACCGUAAAUGUCCGACUGGAGCCGUUCGGGCGGCUAUAAACAGACCUCAGGCCCGAAGCGUGGCGGCACCUGCCGCCGGUGGUAAAAAAGAUCGGAAGAGCACACGUCU	1.31
GGGUCGUGCAUGGAUAAUCGCGUGGAUAUGGCACGCAAGUUUCUACCGGGCACCGUAAAUGUCCGACUGGAGCCGUUCGGGCGGCUAUAAACAGACCUCAGGCCCGAAGCGUGGCGGCACCUGCCGCCGGUGGUAAAAAAGAUCGGAAGAGCACACGUCU	1.16
GGGUCGUGGGUCCAUAAUCGCGUGGAUAUGGCACGCAAGUUUCUACCGGGCACCGUAAAUGUCCGACUGGAGCCGUUCGGGCGGCUAUAAACAGACCUCAGGCCCGAAGCGUGGCGGCACCUGCCGCCGGUGGUAAAAAAGAUCGGAAGAGCACACGUCU	1.32
GGGUCGAACGUGCAUAAUCGCGUGGAUAUGGCACGCAAGUUUCUACCGGGCACCGUAAAUGUCCGACUGGAGCCGUUCGGGCGGCUAUAAACAGACCUCAGGCCCGAAGCGUGGCGGCACCUGCCGCCGGUGGUAAAAAAGAUCGGAAGAGCACACGUCU	1.33
GGGUCGCACCCGGAUAAUCGCGUGGAUAUGGCACGCAAGUUUCUACCGGGCACCGUAAAUGUCCGACUGGAGCCGUUCGGGCGGCUAUAAACAGACCUCAGGCCCGAAGCGUGGCGGCACCUGCCGCCGGUGGUAAAAAAGAUCGGAAGAGCACACGUCU	1.04
GGGUCGCUGCGCGAUAAUCGCGUGGAUAUGGCACGCAAGUUUCUACCGGGCACCGUAAAUGUCCGACUGGAGCCGUUCGGGCGGCUAUAAACAGACCUCAGGCCCGAAGCGUGGCGGCACCUGCCGCCGGUGGUAAAAAAGAUCGGAAGAGCACACGUCU	1.17
GGGUCGAGGUAUUAUAAUCGCGUGGAUAUGGCACGCAAGUUUCUACCGGGCACCGUAAAUGUCCGACUGGAGCCGUUCGGGCGGCUAUAAACAGACCUCAGGCCCGAAGCGUGGCGGCACCUGCCGCCGGUGGUAAAAAAGAUCGGAAGAGCACACGUCU	1.18
GGGUCGCAAUGACAUAAUCGCGUGGAUAUGGCACGCAAGUUUCUACCGGGCACCGUAAAUGUCCGACUGGAGCCGUUCGGGCGGCUAUAAACAGACCUCAGGCCCGAAGCGUGGCGGCACCUGCCGCCGGUGGUAAAAAAGAUCGGAAGAGCACACGUCU	1.07
GGGUCGCUCGACGAUAAUCGCGUGGAUAUGGCACGCAAGUUUCUACCGGGCACCGUAAAUGUCCGACUGGAGCCGUUCGGGCGGCUAUAAACAGACCUCAGGCCCGAAGCGUGGCGGCACCUGCCGCCGGUGGUAAAAAAGAUCGGAAGAGCACACGUCU	1.05
GGGUCGACACAUGAUAAUCGCGUGGAUAUGGCACGCAAGUUUCUACCGGGCACCGUAAAUGUCCGACUGGAGCCGUUCGGGCGGCUAUAAACAGACCUCAGGCCCGAAGCGUGGCGGCACCUGCCGCCGGUGGUAAAAAAGAUCGGAAGAGCACACGUCU	1.15
GGGUCGACAGGUUAUAAUCGCGUGGAUAUGGCACGCAAGUUUCUACCGGGCACCGUAAAUGUCCGACUGGAGCCGUUCGGGCGGCUAUAAACAGACCUCAGGCCCGAAGCGUGGCGGCACCUGCCGCCGGUGGUAAAAAAGAUCGGAAGAGCACACGUCU	1.07
GGGUCGUACUAUUAUAAUCGCGUGGAUAUGGCACGCAAGUUUCUACCGGGCACCGUAAAUGUCCGACUGGAGCCGUUCGGGCGGCUAUAAACAGACCUCAGGCCCGAAGCGUGGCGGCACCUGCCGCCGGUGGUAAAAAAGAUCGGAAGAGCACACGUCU	1.15
GGGUCGCGCUGGGAUAAUCGCGUGGAUAUGGCACGCAAGUUUCUACCGGGCACCGUAAAUGUCCGACUGGAGCCGUUCGGGCGGCUAUAAACAGACCUCAGGCCCGAAGCGUGGCGGCACCUGCCGCCGGUGGUAAAAAAGAUCGGAAGAGCACACGUCU	1.1
GGGUCGUGUGCAGAUAAUCGCGUGGAUAUGGCACGCAAGUUUCUACCGGGCACCGUAAAUGUCCGACUGGAGCCGUUCGGGCGGCUAUAAACAGACCUCAGGCCCGAAGCGUGGCGGCACCUGCCGCCGGUGGUAAAAAAGAUCGGAAGAGCACACGUCU	1.02
GGGUCGGAAGAUAAUAAUCGCGUGGAUAUGGCACGCAAGUUUCUACCGGGCACCGUAAAUGUCCGACUGGAGCCGUUCGGGCGGCUAUAAACAGACCUCAGGCCCGAAGCGUGGCGGCACCUGCCGCCGGUGGUAAAAAAGAUCGGAAGAGCACACGUCU	1.18
